# Experimental data taken from patent US20200172620A1 (Genentech, published 2020).
# T1: rat CD8 on CD8+ cells isolated from rat blood (rat, UniProt P07725 27-236)
# T1 construct: whole, on cells
# T1 sequence (looked up): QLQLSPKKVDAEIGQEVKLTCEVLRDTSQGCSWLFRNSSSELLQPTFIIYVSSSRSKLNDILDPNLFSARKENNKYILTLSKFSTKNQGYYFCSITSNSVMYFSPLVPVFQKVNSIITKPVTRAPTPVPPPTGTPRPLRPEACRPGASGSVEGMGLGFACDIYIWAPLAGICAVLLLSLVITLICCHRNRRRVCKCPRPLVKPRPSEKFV
# Tests used:
# [1] = biological target: T2, cynomolgous CD8 (as used in SPR) (cynomolgous monkey); assay: SPR, Fab
# T2 construct: also called cyno CD8
# [2] = biological target: T3, cynomolgous CD8 on cells (FACS) (cynomolgous monkey); assay: FACS
# T3 construct: whole, on cells; also called cyno CD8
# [3] = biological target: T4, human CD8 on cells (FACS) (human, UniProt P01732 22-235); assay: FACS
# T4 construct: whole, on cells
# T4 sequence (P01732 22-235): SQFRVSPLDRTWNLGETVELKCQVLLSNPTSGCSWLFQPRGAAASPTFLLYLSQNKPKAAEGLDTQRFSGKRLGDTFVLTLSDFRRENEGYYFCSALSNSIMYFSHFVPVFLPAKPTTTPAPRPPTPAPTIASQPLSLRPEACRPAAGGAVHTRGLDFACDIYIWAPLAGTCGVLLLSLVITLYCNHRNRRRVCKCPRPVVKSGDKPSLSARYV
# [4] = biological target: T5, rhesus CD8 on cells (FACS) (rhesus monkey, UniProt P01732 23-235 (human entry)); assay: FACS
# T5 construct: also called rhesus monkey CD8
# T5 sequence (P01732 other isoform, or with tags, fused parts or gaps limits assumed): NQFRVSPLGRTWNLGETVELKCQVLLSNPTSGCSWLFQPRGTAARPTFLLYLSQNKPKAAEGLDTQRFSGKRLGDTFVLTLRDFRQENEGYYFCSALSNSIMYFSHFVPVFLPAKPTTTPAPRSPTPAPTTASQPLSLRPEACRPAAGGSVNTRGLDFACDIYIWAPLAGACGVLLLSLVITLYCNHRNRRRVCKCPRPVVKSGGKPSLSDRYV
# [5] = biological target: T2, cynomolgous CD8 (as used in SPR); assay: SPR (Fab, by paragraph 255)
# [6] = biological target: T6, human CD8 (as used in SPR) (human, UniProt P01732 22-182); assay: SPR (Fab, by paragraph 255)
# T6 construct: also called huCD8
# T6 sequence (P01732 22-182): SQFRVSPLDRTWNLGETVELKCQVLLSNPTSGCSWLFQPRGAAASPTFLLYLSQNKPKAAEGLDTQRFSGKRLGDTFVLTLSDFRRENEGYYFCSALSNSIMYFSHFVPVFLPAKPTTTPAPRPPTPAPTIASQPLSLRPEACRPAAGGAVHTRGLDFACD
# [7] = biological target: T6, human CD8 (as used in SPR); assay: SPR
# [8] = biological target: T7, mouse CD8 on CD8+ cells isolated from mouse blood (mouse, UniProt P01731 28-247); assay: FACS with CD8+ cells isolated from mouse blood
# T7 construct: whole, on cells
# T7 sequence (P01731 28-247): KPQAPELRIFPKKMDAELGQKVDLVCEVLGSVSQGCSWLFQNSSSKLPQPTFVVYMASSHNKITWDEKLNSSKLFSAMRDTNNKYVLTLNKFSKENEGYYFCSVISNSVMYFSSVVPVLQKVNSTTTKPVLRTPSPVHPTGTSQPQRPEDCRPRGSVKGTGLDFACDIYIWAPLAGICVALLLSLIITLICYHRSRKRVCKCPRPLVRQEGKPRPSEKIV
# [9] = biological target: T6, human CD8 (as used in SPR); assay: SPR, Fab
# [10] = biological target: T1, rat CD8 on CD8+ cells isolated from rat …; assay: FACS with CD8+ cells isolated from rat blood
# [11] = biological target: T4, human CD8 on cells (FACS); assay: FACS titration on cells carrying human CD8 (legend paragraph 23: CHO cells expressing recombinant human CD8; text paragraph 256: PBMCs)
# [12] = biological target: T2, cynomolgous CD8 (as used in SPR); assay: SPR
binder,measurement,setting,value
"huOKT8.v9 (Fab, V domains shown, also called OKT.v9 Fab) VH: EVQLVQSGAEVKKPGASVKVSCKASGFNIKDTYIHWVRQAPGQGLEWIGRIDPANDNTLYASKFQGRATITADTSTSTAYLELSSLRSEDTAVYYCGRGYGYYVFDHWGQGTLVTVSS VL: DVQITQSPSSLSASVGDRVTITCRTSRSISQYLAWYQEKPGKTNKLLIYSGSTLQSGIPSRFSGSGSGTDFTLTISSLQPEDFATYYCQQHNEFPVTFGQGTKVEIKR",fold improvement in binding compared to huOKT8.v1,[1],50 fold
same,Kd,[2],44 nM
same,Kd,[3],2 nM
same,Kd,[4],121 nM
same,Kd,[5],103 nM
same,Kd,[6],0.3 nM
same,Ratio of KD huOKT8.v1/KD variant for binding to huCD8,[7],37 X
"huOKT8.v10 (antibody, V domains shown, The entries as printed are a Fab heavy chain and a whole kappa light chain) VH: EVQLVQSGAEVKKPGASVKVSCKASGFNIKDTYIHWVRQAPGQGLEWIGRIDPANDNTLYASKFQGRATITADTSTSTAYLELSSLRSEDTAVYYCGRGYGYYVFDHWGQGTLVTVSS VL: DVQITQSPSSLSASVGDRVTITCRTSRSISQYLAWYQEKPGKTNKLLIYSGSTLQSGIPSRFSGSGSGTDFTLTISSLQPEDFATYYCQQHNEFPPTFGQGTKVEIKR",Ratio of KD huOKT8.v1/KD variant for binding to huCD8,[7],18 X
"huOKT8.v11 (Fab, V domains shown, also called OKT.v11 Fab) VH: EVQLVQSGAEVKKPGASVKVSCKASGFNIKDTYIHWVRQAPGQGLEWIGRIDPANDNTLYASKFQGRATITADTSTSTAYLELSSLRSEDTAVYYCGRGYGYYVFDHWGQGTLVTVSS VL: DVQITQSPSSLSASVGDRVTITCRTSRSISQYLAWYQEKPGKTNKLLIYSGSTLQSGIPSRFSGSGSGTDFTLTISSLQPEDFATYYCQQVNEFPPTFGQGTKVEIKR",binding result,[8],no binding
same,fold improvement in binding compared to huOKT8.v1,[1],230 fold
same,fold improvement in binding compared to huOKT8.v1,[9],55 fold
same,Kd,[2],13 nM
same,Kd,[3],2 nM
same,Kd,[4],20 nM
same,binding result,[10],no binding
same,Kd,[5],23 nM
same,Kd,[6],0.2 nM
same,Ratio of KD huOKT8.v1/KD variant for binding to huCD8,[7],37 X
same,EC50 (read off the curve),[11],~0.8 µg/mL
"huOKT8.v15 (antibody, V domains shown, The entries as printed are a Fab heavy chain and a whole kappa light chain) VH: EVQLVQSGAEVKKPGASVKVSCKASGFNIKDTYIHWVRQAPGQGLEWIGRIDPANDNTLYARKFQGRATITADTSTSTAYLELSSLRSEDTAVYYCTRGYGYYVFDTWGQGTLVTVSS VL: DVQITQSPSSLSASVGDRVTITCRTSRSISQYLAWYQEKPGKTNKLLIYSGSTLQSGIPSRFSGSGSGTDFTLTISSLQPEDFATYYCQQVNEFPVTFGQGTKVEIKR",Ratio of KD huOKT8.v1/KD variant for binding to huCD8,[7],210 X
"huOKT8.v17 (antibody, V domains shown, The entries as printed are a Fab heavy chain and a whole kappa light chain) VH: EVQLVQSGAEVKKPGASVKVSCKASGFNIKDTYIHWVRQAPGQGLEWIGRIDPANDNTLYASKFQGRATITADTSTSTAYLELSSLRSEDTAVYYCGRGYGYYVFDHWGQGTLVTVSS VL: DVQITQSPSSLSASVGDRVTITCRTSRSISKYLAWYQEKPGKTNKLLIYSGSTLQSGIPSRFSGSGSGTDFTLTISSLQPEDFATYYCQQVNEFPVTFGQGTKVEIKR",Ratio of KD huOKT8.v1/KD variant for binding to huCD8,[7],210 X
"huOKT8.v1 (antibody, V domains shown) VH: EVQLVQSGAEVKKPGASVKVSCKASGFNIKDTYIHWVRQAPGQGLEWIGRIDPANDNTLYASKFQGRATITADTSTSTAYLELSSLRSEDTAVYYCGRGYGYYVFDHWGQGTLVTVSS VL: DVQITQSPSSLSASVGDRVTITCRTSRSISQYLAWYQEKPGKTNKLLIYSGSTLQSGIPSRFSGSGSGTDFTLTISSLQPEDFATYYCQQHNENPLTFGQGTKVEIK",Kd,[12],5250 nM
"huOKT8.v12 (antibody, V domains shown) VH: EVQLVQSGAEVKKPGASVKVSCKASGFNIKDTYIHWVRQAPGQGLEWIGRIDPANDNTLYASKFQGRATITADTSTSTAYLELSSLRSEDTAVYYCGRGYGYYVFDHWGQGTLVTVSS VL: DVQITQSPSSLSASVGDRVTITCRTSRSISQYLAWYQEKPGKTNKLLIYSGSTLQSGIPSRFSGSGSGTDFTLTISSLQPEDFATYYCQQVNEFPVTFGQGTKVEIK",Ratio of KD huOKT8.v1/KD variant for binding to huCD8,[7],73 X
